Data published in PMC7534572.

Legend:
[1] = biological target: HpiI (Hymenoscyphus scutula); experiment: crystal structure
[2] = biological target: PdxI (Aspergillus bombycis); experiment: crystal structure

Substance	stoichiometry N [1]	stoichiometry N [2]
HpiI (enzyme)	2	
PdxI (enzyme)		2
